The results in this text go back to patent publication US20250197482A1.

In test [1] the target is HIV-1 Env of strain WITO.33 (Env-pseudotyped virus) (HIV-1).
For test [2], the target named is 426C-WITO soluble Env trimer (clade B), stabilized in the prefusion-closed conformation (HIV-1). Briefly: ELISA, lectin-captured trimer, expression supernatant, single point, OD 450 nm, column 426c-WITO-degly3.
For test [3], the target named is CAP256 soluble Env trimer (clade C), stabilized in the prefusion-closed conformation (HIV-1). Briefly: ELISA, lectin-captured trimer, expression supernatant, single point, OD 450 nm.
Test [4] addresses K169V variant of CAP256 soluble Env trimer (HIV-1). The description is as above.
Test [5] addresses JRFL soluble Env trimer (clade B), stabilized in the prefusion-closed conformation (HIV-1). The description is as above.

Turning to VRC01 (antibody), the % neutralization, single point, Env-pseudotyped virus on TZM-bl with CAP256 wk34c80 (HIV-1) was 100%; in test [1], 0%. In addition, the ELISA binding in test [2] was 2.53; in test [3] it was 2.31; in test [4] it was 2.65; in test [5], 2.29.
